The assay concerns the target p75 neurotrophin receptor (p75^NTR) on rat embryonic (E15) spinal cord motor neurons (rat) (UniProt P07174). In words: cell-based or functional assay.

Sequence of p75 neurotrophin receptor (p75^NTR) on rat embryonic (E15) spinal cord motor neurons (rat) (P07174 30-425): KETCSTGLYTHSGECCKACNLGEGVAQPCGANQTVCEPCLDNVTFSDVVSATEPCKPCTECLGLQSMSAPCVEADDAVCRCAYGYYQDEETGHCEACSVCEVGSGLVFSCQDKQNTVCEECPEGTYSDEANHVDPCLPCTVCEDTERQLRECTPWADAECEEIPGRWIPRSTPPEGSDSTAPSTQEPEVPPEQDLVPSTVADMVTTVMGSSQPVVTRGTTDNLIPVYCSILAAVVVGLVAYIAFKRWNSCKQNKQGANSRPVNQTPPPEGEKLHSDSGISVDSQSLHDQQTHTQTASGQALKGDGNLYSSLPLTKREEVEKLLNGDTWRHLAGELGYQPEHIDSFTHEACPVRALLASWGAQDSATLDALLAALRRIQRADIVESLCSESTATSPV

Regarding “mouse NGF (2.5S), purified, from Harlan (from UniProt P01139 122-241) (ligand)”, the share of motor neurons vulnerable to NGF in culture is 40%.
